US20040106148A1, “Polypeptides” (priority 2000, published 2004)

Assays:
Format in all cases: binding
Protein-lipid overlay [1] = conditions: GST fusion protein, dipalmitoyl lipid spotted on membrane, FIG. 2
Protocol: (§1) FIG. 2. Phosphoinositide binding properties of the novel PH domains. The ability of the indicated GST fusion proteins to bind a variety of phosphoinositides was analysed using a protein-lipid overlay. Serial dilutions of the indicated phosphoinositides (100 pmol, 50 pmol, 25 pmol, 12.5 pmol, 6.3 pmol, 3.1 pmol and 1.6 pmol) were spotted onto a nitrocellulose membranes which were then incubated with the purified GST fusion proteins. The membranes were washed and the GST-fusion proteins bound to the membrane by virtue of their interaction with lipid were detected using a GST antibody. A representative of at least 3 separate experiments carried out is shown.
(§2) Protein-Lipid overlay. To assess the phosphoinositide binding properties of each PH domain, a protein-lipid overlay assay was performed using the GST fusion proteins as described previously. […]
(§3) We studied the specificity and affinity of interaction of the PH domains for phosphoinositide lipids using either a “protein-lipid overlay” assay (FIG. 2) or the more quantitative surface plasmon resonance based approach (Table 2). […] For the surface plasmon resonance based assay, the apparent Kd values of the GST PH domain fusion proteins resulting from their interaction with a supported lipid monolayer containing a low mole fraction of phosphoinositide, was determined (Table 2).

[2] = Protein-lipid overlay, panel of phosphoinositides; conditions: GST fusion protein; for Binding to any other phosphoinositide (than the one bound): FIG. 2; for Interaction with any phosphoinositide tested: FIG. 2 / FIG. 4A
Protocol: as §1
FIG. 4. Comparison of the phosphoinositide binding properties of the N-terminal and C-terminal PH domains of TAPP1 and TAPP2. The ability of wild type and mutant forms of full length (FL) and isolated N-terminal (NT) and C-terminal (CT) PH domains of TAPP1 and TAPP2 GST-fusion proteins to interact with phosphoinositides were analysed using a protein-lipid overlay. Serial dilutions of the indicated phosphoinositides (100 pmol, 50 pmol, 25 pmol, 12.5 pmol, 6.3 pmol, 3.1 pmol and 1.6 pmol) were spotted onto a nitrocellulose membrane which was then incubated with the indicated purified GST fusion proteins. The membranes were washed and the GST-fusion proteins bound to the membrane by virtue of their interactions with lipid were detected using a GST antibody. A representative experiment of three is shown. The isolated N-terminal PH domain of human TAPP1 comprises residues 1 to 147, the isolated C-terminal PH domain of human TAPP1 comprises residues 95 to 404, the isolated N-terminal PH domain of mouse TAPP2 comprises residues 1 to 131 and the isolated C-terminal PH of mouse TAPP2 comprises residues 174 to 425.
Protein-Lipid overlay. To assess the phosphoinositide binding properties of each PH domain, a protein-lipid overlay assay was performed using the GST fusion proteins as described previously. Briefly, 1 μl of lipid solution containing 1-100 pmol of phospholipids dissolved in a mixture of choroform:methanol:water (1:2:0.8) was spotted onto Hybond-C extra membrane and allowed to dry at room temperature for 1 h. The membrane was blocked in 3% (by mass) fatty acid-free BSA in TBST (50 mM Tris/HCl pH 7.5, 150 mM NaCl and 0.1% Tween-20 (by vol) for lh. The membrane was then incubated overnight at 4° C. with gentle agitation in the same solution containing 0.2 μg/ml of the indicated GST fusion protein. The membranes were washed 6 times over 30 min in TBST and then incubated for 1 h with 1/1000 dilution of anti-GST monoclonal antibody (Sigma). The membranes were washed as before, then incubated for 1 h with 1/5000 dilution of anti-mouse-HRP conjugate (Pierce). Finally, the membranes were washed 12 times over 1 h in TBST and the GST-fusion protein bound to the membrane by virtue of its interaction with phospholipid was detected by enhanced chemiluminescence.
We studied the specificity and affinity of interaction of the PH domains for phosphoinositide lipids using either a “protein-lipid overlay” assay (FIG. 2) or the more quantitative surface plasmon resonance based approach (Table 2). For the protein-lipid overlay assay, serial dilutions of phosphoinositides were spotted on to a nitrocellulose membrane and incubated with the indicated GST PH domain fusion protein or GST-DAPP1 (that binds PtdIns(3,4,5)P3 and PtdIns(3,4)P2 [4]), GST-GRP1 (that binds only PtdIns(3,4,5)P3 [8]) and GST-phospholipase Cδ1 (that binds only PtdIns(4,5)P2 (Ferguson et al (1995) Cell 83, 1037-1046)) as controls. The membranes were then washed and immunoblotted with a GST antibody to detect GST fusion proteins bound to the membrane by virtue of their interaction with lipid. […]

Protein-lipid overlay [3] = conditions: GST fusion protein, lipid spotted 1.6-100 pmol on membrane, FIG. 2 / FIG. 4
Protocol: as §1
FIG. 4. […] The ability of wild type and mutant forms of full length (FL) and isolated N-terminal (NT) and C-terminal (CT) PH domains of TAPP1 and TAPP2 GST-fusion proteins to interact with phosphoinositides were analysed using a protein-lipid overlay. […] The membranes were washed and the GST-fusion proteins bound to the membrane by virtue of their interactions with lipid were detected using a GST antibody. […]
We studied the specificity and affinity of interaction of the PH domains for phosphoinositide lipids using either a “protein-lipid overlay” assay (FIG. 2) or the more quantitative surface plasmon resonance based approach (Table 2). […]

Protein-lipid overlay [4] = conditions: GST fusion protein, lipid spotted on membrane, FIG. 2 / FIG. 11
Protocol: as §1
Methods used are equivalent to those specified in the legend to FIG. 2.
as §2, §3

Molecule | Binding to any other phosphoinositide (than the one bound) [2] | Interaction with any phosphoinositide tested [2] | other results
CT-PH TAPP1: GST fusion of isolated C-terminal PH domain of human TAPP1, residues 95 to 404 (protein, UniProt Q9HB21 95-404, looked up, fragment, C-terminal PH domain GST fusion) NDQQDLVEWVNVLNKAIKITVPKQSDSQPNSDNLSRHGECGKKQVSYRTDIVGGVPIITPTQKEEVNECGESIDRNNLKRSQSHLPYFTPKPPQDSAVIKAGYCVKQGAVMKNWKRRYFQLDENTIGYFKSELEKEPLRVIPLKEVHKVQECKQSDIMMRDNLFEIVTTSRTFYVQADSPEEMHSWIKAVSGAIVAQRGPGRSASSEHPPGPSESKHAFRPTNAATATSHSTASRSNSLVSTFTMEKRGFYESLAKVKPGNFKVQTVSPREPASKVTEQALLRPQSKNGPQEKDCDLVDLDDASLPVSDV | did not bind | – | Interaction with PtdIns(3,4,5)P3 (Protein-lipid overlay [1]): did not bind; Interaction with PtdIns(3,4)P2 (Protein-lipid overlay [3]): interacted with PtdIns(3,4)P2
N-terminal PH domain of TAPP2: GST fusion of isolated N-terminal PH domain of mouse TAPP2, residues 1 to 131 (protein, UniProt Q9ERS5 1-131, looked up, fragment, N-terminal PH domain GST fusion) MPYVDRQNRICGFLDIEDNENSGKFLRRYFILDTQANCLLWYMDNPQNLAVGAGAVGSLQLTYISKVSIATPKQKPKTPFCFVINALSQRYFLQANDQKDLKDWVEALNQASKITVPKAGTVPLATEVLKN | – | failed to interact | –
pleckstrin-2: GST fusion of mouse pleckstrin-2 residues 1 to 249 (protein, UniProt Q9WV52 1-249, looked up, fragment, GST fusion) MEDGVLKEGFLVKRGHIVHNWKARWFILRQNTLLYYKLEGGRRVTPPKGRIVLDGCTITCPCLEYENRPLLIKLKTRTSTEYFLEACSREERDSWAFEITGAIHAGQPGKIQQLHILKNSFKLPPHISLHRIVDKMHDTSTGIRPSPNMEQGSTYKKTFLGSSLVDWLISSNFAASRLEAVTLASMLMEENFLRPVGVRSMGAIRSGDLAEQFLDDSTALYTFAESYKKKVSSKEEISLSTMELSGTVV | – | interacted with several phosphoinositides | –
NT-PH TAPP1: GST fusion of isolated N-terminal PH domain of human TAPP1, residues 1 to 147 (protein, UniProt Q9HB21 1-147, looked up, fragment, N-terminal PH domain GST fusion) MPYVDRQNRICGFLDIEENENSGKFLRRYFILDTREDSFVWYMDNPQNLPSGSSRVGAIKLTYISKVSDATKLRPKAEFCFVMNAGMRKYFLQANDQQDLVEWVNVLNKAIKITVPKQSDSQPNSDNLSRHGECGKKQVSYRTDIVG | – | failed to interact | –

Continued, in another order:

Binding to any other phosphoinositide (than the one bound) [2] | Molecule | Interaction with any phosphoinositide tested [2] | other results
did not bind | C-terminal PH domain of TAPP2: GST fusion of isolated C-terminal PH domain of mouse TAPP2, residues 174 to 425 (protein, UniProt Q9ERS5 174-425, looked up, fragment, C-terminal PH domain GST fusion) GTHAFLRRSQSYIPTSGCRPSTGPPLIKSGYCVKQGNVRKSWKRRFFALDDFTICYFKCEQDREPLRTIPLKDVLKTHECLVKSGDLLMRDNLFEIITTSRTFYVQADSPEDMHSWIEGIGAAVQALKCHPREPSFSRSISLTRPGSSTLTSAPNSILSRRRPPAEEKRGLCKAPSVASSWQPWTPVPQAEEKPLSVEHAPEDSLFMPNPGESTATGVLASSRVRHRSEPQHPKEKPFVFNLDDENIRTSDV | – | Interaction with PtdIns(3,4,5)P3 (Protein-lipid overlay [1]): did not bind; Interaction with PtdIns(3,4)P2 (Protein-lipid overlay [3]): interacted with PtdIns(3,4)P2
did not bind | PH domain of mouse centaurin-β2: GST fusion of mouse centaurin-β2 residues 266 to 390, expressed in 293 cells (protein, UniProt Q6ZQK5 266-390, looked up, fragment, PH domain GST fusion, GST fusion of mouse centaurin-β2 residues 266 to 390, expressed in 293 cells) GIVMEGYLFKRASNAFKTWNRRWFSIQNNQLVYQKKFKDSPTVVVEDLRLCTVKHCEDIERRFCFEVVSPTKSCMLQADSEKLRQAWIKAVQTSIATAYREKGDESEKLDKKSSPSTGSLDSGNE | – | –
interacted more weakly | evectin-2: GST fusion of human evectin-2 residues 1 to 167 (protein, UniProt Q96CS7 1-167, looked up, fragment, GST fusion) MAFVKSGWLLRQSTILKRWKKNWFDLWSDGHLIYYDDQTRQNIEDKVHMPMDCINIRTGQECRDTQPPDGKSKDCMLQIVCRDGKTISLCAESTDDCLAWKFTLQDSRTNTAYVGSAVMTDETSVVSSPPPYTAYAAPAPEQAYGYGPYGGAYPPGTQVVYAANGQA | – | –
did not bind | FAPP1: GST fusion of the PH domain of human FAPP1 (residues 1 to 99), PtdIns-Four-phosphate AdaPtor Protein-1, expressed in E. coli (protein, UniProt Q9HB20 1-99, looked up, fragment, PH domain GST fusion, GST fusion of the PH domain of human FAPP1 (residues 1 to 99), PtdIns-Four-phosphate AdaPtor Protein-1, expressed in E. coli) MEGVLYKWTNYLTGWQPRWFVLDNGILSYYDSQDDVCKGSKGSIKMAVCEIKVHSADNTRMELIIPGEQHFYMKAVNAAERQRWLVALGSSKACLTDTR | – | Interaction with PtdIns4P (Protein-lipid overlay [4]): high affinity
